± gives the uncertainty stated by the source.
B1: POU domain, class 6, transcription factor 2, residues 609 to 663; numbered along this chain, P78424 (parent)
chain: KRRTSFTPQALEILNAHFEKNTHPSGQEMTEIAEKLNYDREVVRVWFCNKRQALK

Variants of: B1
Experiment: abundance fitness (aPCA) (normalised: wild type 0, dead -1); higher = more abundant; growth selection in yeast, the domain comes from the species named
Settings: Homo sapiens

Abundance fitness, by site and new letter:
Q9: M -0.041 ± 0.22 | W -0.184 ± 0.16 | P -0.028 ± 0.15 | H -0.049 ± 0.24 | G -0.06 ± 0.085 | K -0.037 ± 0.2 | L -0.253 ± 0.092 | S -0.207 ± 0.096 | E -0.432 ± 0.2 | Y -0.088 ± 0.3 | N -0.141 ± 0.18 | I -0.057 ± 0.5 | D -0.12 ± 0.15 | T -0.106 ± 0.18
L14: A -0.969 ± 0.14 | Q -0.819 ± 0.11 | S -1.05 ± 0.14 | D -0.972 ± 0.2 | Y -0.878 ± 0.24 | N -1.06 ± 0.34 | H -0.788 ± 0.31 | E -1.07 ± 0.19 | F -0.877 ± 0.24 | W -1.03 ± 0.13 | G -0.919 ± 0.08 | C -0.734 ± 0.19 | I -0.898 ± 0.23 | K -0.874 ± 0.34 | P -0.852 ± 0.21 | T -0.936 ± 0.19 | V -0.729 ± 0.089
F6: H -0.272 ± 0.15 | G -0.326 ± 0.067 | C -0.15 ± 0.09 | T -0.134 ± 0.11 | R -0.423 ± 0.076 | E -0.191 ± 0.11 | I 0.092 ± 0.1 | M -0.042 ± 0.12 | P 0.039 ± 0.17 | N -0.267 ± 0.19 | W -0.025 ± 0.098 | Q -0.28 ± 0.14 | Y -0.187 ± 0.14 | D -0.246 ± 0.13 | S -0.415 ± 0.086 | L 0.135 ± 0.076 | A -0.354 ± 0.092
N21: W -0.67 ± 0.09 | C -0.008 ± 0.1 | S -0.17 ± 0.08 | Q -0.044 ± 0.15 | F -0.659 ± 0.12 | H -0.182 ± 0.1 | R -0.274 ± 0.064 | D -0.153 ± 0.092 | V -0.335 ± 0.068 | M -0.421 ± 0.14 | I -0.351 ± 0.18 | K -0.303 ± 0.13 | L -0.551 ± 0.071 | Y -0.36 ± 0.13 | T -0.173 ± 0.1 | P -0.987 ± 0.33 | A -0.198 ± 0.08 | E -0.016 ± 0.11
E19: I 0.032 ± 0.1 | D -0.037 ± 0.11 | M -0.013 ± 0.11 | N -0.07 ± 0.15 | S 0.073 ± 0.072 | Q -0.391 ± 0.18 | R -0.05 ± 0.071 | F -0.288 ± 0.12 | W -0.127 ± 0.1 | G -0.148 ± 0.056 | A 0.046 ± 0.074 | H -0.092 ± 0.14 | P -1.05 ± 0.24 | L -0.057 ± 0.077 | C -0.085 ± 0.095
N15: S -0.193 ± 0.12 | A -0.247 ± 0.11 | H -0.085 ± 0.16 | Q -0.281 ± 0.11 | V -0.307 ± 0.087 | P -0.378 ± 0.23 | D -0.093 ± 0.15 | R -0.217 ± 0.084 | I -0.78 ± 0.38 | F -0.543 ± 0.33 | T -0.217 ± 0.13 | W -0.361 ± 0.11 | C -0.086 ± 0.13 | M -0.132 ± 0.11 | L -0.15 ± 0.093 | K -0.13 ± 0.14 | Y -0.615 ± 0.24
T22: D -0.037 ± 0.12 | A 0.006 ± 0.092
E12: G -0.105 ± 0.11 | C -0.261 ± 0.15 | A -0.401 ± 0.14 | P -0.724 ± 0.18 | V -0.331 ± 0.15 | R -0.107 ± 0.089 | Q -0.298 ± 0.28 | S -0.009 ± 0.12 | D -0.002 ± 0.3 | W -0.233 ± 0.16 | L -0.403 ± 0.11 | M -0.222 ± 0.19 | K -0.695 ± 0.4
K1: S -0.275 ± 0.14 | R -0.269 ± 0.12 | W -0.267 ± 0.16 | V -0.776 ± 0.3 | T -0.077 ± 0.19 | Y -0.41 ± 0.34
A10: D -0.015 ± 0.15 | N -0.106 ± 0.28 | S -0.262 ± 0.15 | Y -0.76 ± 0.29 | L -0.51 ± 0.13 | K -0.587 ± 0.33 | C -0.154 ± 0.23 | G -0.087 ± 0.12 | M -0.206 ± 0.2 | V -0.227 ± 0.13 | F -0.538 ± 0.22 | W -0.87 ± 0.27 | R -0.904 ± 0.14 | Q -0.107 ± 0.17 | E 0.062 ± 0.14
H17: K 0.04 ± 0.1 | A -0.03 ± 0.067 | W 0.011 ± 0.068 | I -0.028 ± 0.12 | E 0.064 ± 0.072 | G -0.369 ± 0.057 | R -0.101 ± 0.057 | Q -0.002 ± 0.086 | F -0.056 ± 0.098 | D -0.156 ± 0.09 | Y -0.065 ± 0.092 | M -0.028 ± 0.077 | V -0.031 ± 0.054 | S -0.065 ± 0.063 | P -0.961 ± 0.25 | C -0.063 ± 0.072 | L -0.008 ± 0.058 | N -0.101 ± 0.15
A16: M 0.016 ± 0.09 | L -0.054 ± 0.066 | D 0.113 ± 0.094 | K -0.044 ± 0.1 | Y -0.151 ± 0.12 | R -0.084 ± 0.052 | C -0.164 ± 0.087 | P -0.865 ± 0.21 | H 0.044 ± 0.17 | G -0.049 ± 0.05 | W -0.164 ± 0.065 | F -0.091 ± 0.1 | Q 0.019 ± 0.12 | I -0.183 ± 0.13 | N 0.02 ± 0.12 | E -0.002 ± 0.076 | S -0.16 ± 0.073 | V -0.078 ± 0.06
F18: M -0.76 ± 0.15 | P -1.07 ± 0.32 | Q -0.937 ± 0.24 | N -1.06 ± 0.26 | G -0.848 ± 0.063 | C -0.522 ± 0.11 | Y 0.107 ± 0.15 | I -0.562 ± 0.31 | R -0.856 ± 0.074 | S -0.593 ± 0.091 | V -0.713 ± 0.081 | W -0.086 ± 0.071 | E -0.892 ± 0.11 | T -0.961 ± 0.21 | H -0.698 ± 0.2 | K -0.927 ± 0.19
I13: F -0.113 ± 0.18 | H -0.172 ± 0.27 | W -0.219 ± 0.14 | Y 0.002 ± 0.15 | C -0.113 ± 0.18 | T -0.003 ± 0.19 | L -0.017 ± 0.13 | Q -0.132 ± 0.22 | M -0.218 ± 0.12 | A -0.01 ± 0.12 | S -0.279 ± 0.14 | P -0.98 ± 0.31 | E -0.251 ± 0.21 | G -0.385 ± 0.099
L11: M -0.092 ± 0.14 | G -0.477 ± 0.075 | Q -0.435 ± 0.16 | E -0.002 ± 0.12 | R -0.222 ± 0.074 | C -0.409 ± 0.14 | P -1.01 ± 0.24 | V 0.053 ± 0.095 | S -0.283 ± 0.1 | F -0.498 ± 0.24 | Y -0.339 ± 0.21 | H -0.482 ± 0.24 | D -0.622 ± 0.25 | A -0.279 ± 0.1
K20: F -0.421 ± 0.14 | N -0.227 ± 0.18 | G -0.129 ± 0.061 | T -0.057 ± 0.088 | M -0.02 ± 0.13 | R -0.017 ± 0.061 | E -0.007 ± 0.099 | Q -0.17 ± 0.13 | H -0.239 ± 0.16 | L -0.144 ± 0.074 | C -0.289 ± 0.086 | D -0.291 ± 0.13 | I -0.245 ± 0.14 | A -0.064 ± 0.073 | W -0.303 ± 0.084 | S -0.088 ± 0.075 | Y -0.224 ± 0.12 | V -0.131 ± 0.074 | P -0.936 ± 0.16
R2: T 0.041 ± 0.089 | Q 0.026 ± 0.17 | M 0.064 ± 0.11 | A 0.038 ± 0.085 | I -0.059 ± 0.12 | F -0.056 ± 0.14 | N 0.095 ± 0.1 | P -0.118 ± 0.13 | S 0.106 ± 0.089 | H -0.144 ± 0.26 | W -0.334 ± 0.087 | G -0.034 ± 0.065 | C -0.345 ± 0.11 | E 0.108 ± 0.12
T4: A -0.09 ± 0.079 | E 0.045 ± 0.11 | L -0.063 ± 0.079 | F -0.333 ± 0.14 | V -0.106 ± 0.079 | K -0.123 ± 0.15 | I -0.364 ± 0.22 | G -0.089 ± 0.081 | M -0.148 ± 0.16 | R -0.204 ± 0.071 | H -0.028 ± 0.26 | C -0.058 ± 0.17 | S -0.001 ± 0.093 | D -0.083 ± 0.16 | Y -0.15 ± 0.18 | Q -0.203 ± 0.13
P8: Q -0.365 ± 0.17 | W -0.394 ± 0.13 | A 0.022 ± 0.12 | S 0.05 ± 0.13 | I -0.189 ± 0.24 | C -0.023 ± 0.14 | F -0.147 ± 0.21 | D 0.038 ± 0.14 | H -0.177 ± 0.33 | T 0.477 ± 0.48 | R -0.148 ± 0.1 | K -0.138 ± 0.2 | N -0.072 ± 0.29 | Y -0.572 ± 0.28 | L -0.057 ± 0.11 | V 0.004 ± 0.11 | M 0.037 ± 0.17
T7: N -0.303 ± 0.3 | C -0.079 ± 0.1 | G -0.007 ± 0.093 | A -0.2 ± 0.18 | P 0.04 ± 0.13 | R -0.321 ± 0.087 | I -0.615 ± 0.2 | L -0.288 ± 0.08 | H -0.226 ± 0.18 | V -0.403 ± 0.098 | S -0.042 ± 0.09 | K -0.565 ± 0.17 | D -0.402 ± 0.22 | W -0.409 ± 0.089 | Y -0.637 ± 0.17 | E 0.05 ± 0.13 | M -0.395 ± 0.14 | F -0.867 ± 0.26
R3: C -0.236 ± 0.12 | W -0.265 ± 0.088 | D 0.054 ± 0.12 | I 0.136 ± 0.12 | Q -0.073 ± 0.17 | T -0.134 ± 0.11 | E 0.043 ± 0.1 | S 0.02 ± 0.078 | A -0.136 ± 0.076 | V -0.001 ± 0.071 | P 0.004 ± 0.1 | N 0.208 ± 0.17 | G -0.035 ± 0.059 | F 0.053 ± 0.11 | M 0.01 ± 0.1 | L 0.057 ± 0.073 | K -0.009 ± 0.14
S5: Y -0.147 ± 0.1 | A 0.019 ± 0.093 | I 0.079 ± 0.12 | K 0.035 ± 0.12 | D -0.063 ± 0.097 | F -0.031 ± 0.13 | G 0.041 ± 0.055 | C -0.039 ± 0.084 | R -0.113 ± 0.058 | H -0.245 ± 0.13 | N -0.075 ± 0.12 | E 0.083 ± 0.079 | M -0.127 ± 0.1 | T 0.12 ± 0.11 | V 0.015 ± 0.074 | P -0.032 ± 0.12 | Q 0.221 ± 0.14 | L -0.06 ± 0.071 | W -0.11 ± 0.082

From the Human Domainome abundance scans (Beltran et al. 2025)
